The RNAGym collection of RNA variant scans (doi:10.1073/pnas.2313332121)

B1: TPR t1 (parent)
chain: GACCAAUCUGCCCUCAGAGCUCGAGAACAUCUUCGGAUGCAGAGGAGGCAGGCUUCGGUGGCGCGAUAGCGCCAACGUCCUCAACCUCCAAUGCAUCCCACCACAUGAUGAUGCCUGAAGAGCCUUGGUUUUUUG

Variants of: B1
Experiment: polymerase ribozyme fitness, log enrichment relative to wild type (log ratio); higher = more active; in vitro selection for triplet polymerase activity
Summary of the method: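 Both subunits of a heterodimeric triplet polymerase ribozyme were given their own mutant library, built by PCR and transcribed. Each library was annealed with a biotinylated primer, the partner subunit and triplets, incubated frozen at −7 °C, and its extended constructs gel-excised, captured on streptavidin beads and amplified by RT-PCR, all in one round done in triplicate. Fitness is the logarithm of genotype enrichment relative to wild-type enrichment, with replicates averaged by inverse-variance weighting. That logarithm is base 2, and Illumina-sequenced genotypes needed ≥10 input reads and ≥1 read per output.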

Variant	polymerase ribozyme fitness (log ratio)
C49G A91U	-2.92
C49G C72A C79U G93U	-1.3
G48U C72G	-1.7
C49A C56U C123A	0.705
C49A C104G	-6.42
C49G A100C C101U	-1.62
C49G	-0.312
C49A	-0.241
G48U C79U	-2.53
C49A G52A	-0.855
C49A G71A	-0.646
G48C G69A	-3.69
G48C G127C	-1.62
C49A U78G U96G	-0.964
C49G G69U C94U C114A G120A	-1.33
G48U G93U	-1.29
G48U G57C	-0.412
C49A U55G C70U C86U A95C C101U C123A G135C	-1.71
C49G A50U C72U	-1.85
G48C U106A	0.0361
C49A C88U C94U C123U U132G G135U	-1.38
C49A C53U C101A	-1.38
G48U A66U C72A U96G U112C	-1.61
G48U U134G	-0.783

Variant	polymerase ribozyme fitness (log ratio)
C49A U59A A74U C114U	-2.86
G48C G71A G110A G120A	-3.66
C49G C64G G77U A83U G120U	-7.69
C49A U96A	-1.29
C49A U96C	-0.589
C49A U132A	-0.997
C49G C56G C88U G120C G127A	-2.45
C49A G61C G110U U125C	-4.57
C49A C72U G77U	-2.22
C49G G61A U81C G120C	-3.67
G48U C73G G110U G120U	-4.95
C49A C88A G127U	-2.42
G48C G60A C94G C115U	-3.74
C49G C62A C86A U96A	-3.84
G48U G93A G120A	-0.388
C49A G58C C88G A91U C104G A119G U133G	-7.73
C49A U55G U125A G127A	-1.79
C49A G113C	-2.05
C49A A66U A90C	-3.76
G48U A83G C97U C104A G120A	-3.43
C49G C62U A90U G113U	-4.27
C49A A50G	-1.27
C49G C72G G117A U125A	-4.73
G48U G120A C123U	0.409

Variant	polymerase ribozyme fitness (log ratio)
G48U U106A G128C	-3.74
G48U G61C U78G C98U	-5.49
C49G A50C C89U A91C	-2.86
C49A C72G U132C	-0.77
G48C G61U C98U U112C	-1.23
C49G C56G A91C	-2.49
C49A A50U C62U C88G C123U	-0.464
G48U U130C U133A	-0.9
C49A A83U	-0.343
G48C G113U C123A	-4.5
C49G C62U C88A A95C U130G	-4.6
C49A G52C C72A U96C	-0.937
G48U U59C	0.407
G48U U59A G120U	-0.541
G48C G120A	-0.738
G48C G60C	-1.63
G48C G60A	-1.1
C49G C124A	1.39
C49A U78A G120C	0.377
G48C U78A A111U C123A U129A	-6.15
G48U U131C	-0.204
C49A C62U C85U C124G	1.34
C49G C62G A75G C79U	-3.47
C49G G69C U125G	-3.42

Variant	polymerase ribozyme fitness (log ratio)
C49G C80U C85G	-2.11
C49G A50U	-1.05
G48U U54C C82G C115G	-3.12
C49A G110C U112A	-5.99
G48U C124U U125A	0.397
C49A C62A G71U G117A U130C	-1.49
C49G C72A	-0.887
G48U C49A C73A C115U U133C	-1.19
G48U G65U	-6.34
C49G A90U G113U	-3.57
G48U U87A	-1.44
C49A C56U A121U	1.74
G48U G60A C85G	-0.64
C49A C56A	-0.845
G48U C64U	-0.368
G48U A95U G117U	-3.3
C49G A121C	0.434
C49G C123A	-0.0129
C49G C123G	1.3
G48U U59G C80A G120U C123A	-4.73
G48U U59A G69C U116C C124U	-2.23
C49A C56G G69U C72A	-3.13
G48C U55C A95C C98U	-3.28
C49G G110A A121C	-1.76

Variant	polymerase ribozyme fitness (log ratio)
C49A G71U C89A U130C	-2.94
G48U G52U C102A	-4.14
C49A C85U G113A A119C	-4.02
C49G G51A G61C C94U	-3.22
G48U C70U C86U G113A	-2.66
C49G G52C	-0.352
C49G C64G G120U C124A G135U	-7.53
C49A G110A	-1.34
C49A G110U	-1.73
C49G C82U C101G	-2.53
C49G C62U G113U	-4.48
G48U C56A C102U	-2.75
C49A G57A	-1.5
C49A G57U	-0.512
C49G G77U U78A C85A	-1.63
G48U U55G U112A	0.525
G48U C114G G122A C123G	-3.44
G48C G110C U116G A119G C123A	-5.26
C49A A50G G52U A105U	-1.36
C49A C123G	0.461
C49A C123A	0.189
G48U G69C C86G G113U	-6.36
C49G A91U C115A G128C U131A	-6.98
G48U G69C	-2.22

Variant	polymerase ribozyme fitness (log ratio)
C49A G77C	-0.848
C49G G93U	-1.49
C49G G93C	-1.06
G48U G122A	-1.27
G48U G71U C114U	-3.21
C49G C70U G113U U125C U131G	-6.12
C49G C99A G120C G122U	-6.79
C49A U54A C73U U112C	1.26
G48U G135C	-1.03
G48U G135U	-2.2
G48U C73G	-1.73
G48U C86A	-0.67
G48C U55G C79U A84C C85G G93U C124A	0.322
C49G C85A U112G A121G C124U	-0.43
C49A G69A U106A	-2.86
C49A G71U U92A C123U	-2.65
G48U U59A G60U C79U U92G G122A C123A	-5.96
C49A C53G	-0.789
C49A C73A U130C	0.174
C49A G63A C70A U109C	-7.14
C49A A90U A111C G113A G122C	-3.8
C49A G93C G110U U132C	-2.27
C49A A74G U116G	-1.13
C49G A66C C101G	-4.2

Variant	polymerase ribozyme fitness (log ratio)
C49A A68U G69C U112C U130A	-4.19
C49G G60U U96G	-0.746
C49A U59A G122A	-1.33
C49A G61A C89G U106G C123U	-3.4
G48U C56A G69U C89A C115A A118U	-1.82
G48U G52U A90G A91U C114U	-2.83
C49G C88A U96G U125G	-2.28
C49G C73G C89U G113A G122C	-4.49
C49A G61U A83C U129C	-0.881
C49G C62A G93U C104A G113U U116A	-7.29
C49A C73A	0.508
C49A C73G	-1.88
C49G C70U C85G A105U	-3.38
C49G C89A A111C A118C U129A U134G	-5.22
C49A G61C C88U G117A G135C	-3.6
C49A C89A	-1.76
C49A A50C A119G	0.187
C49A A111C G113U	-5.03
G48U A90U	-1.38
C49A C72A C94A	-0.633
G48C G60U A74U C115U	-2.52
C49A G61A	0.617
G48U C88U G110A	-1.01
